Experiments:
Test in all cases: IP/MS, LZTR1 R810W-FLAG, U87
ARHGAP31 = ARHGAP31 (human, UniProt Q2M1Z3 1-1444)
Procedure, shortened: (§1)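 Extracted peptides in 3% acetonitrile/0.1% formic acid ran on a 50 cm C18 column into an Orbitrap Fusion, with MaxQuant identification and spectral counting.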

VPS13A = VPS13A (human, UniProt Q96RL7 1-3174, limits assumed)
Procedure, shortened: as §1

TTI1 = TTI1 (human, UniProt O43156 1-1089)
Procedure, shortened: as §1

ZCCHC6 = target: T1, ZCCHC6 (human, UniProt Q5VYS8 1-1495, limits assumed)
T1 sequence (looked up): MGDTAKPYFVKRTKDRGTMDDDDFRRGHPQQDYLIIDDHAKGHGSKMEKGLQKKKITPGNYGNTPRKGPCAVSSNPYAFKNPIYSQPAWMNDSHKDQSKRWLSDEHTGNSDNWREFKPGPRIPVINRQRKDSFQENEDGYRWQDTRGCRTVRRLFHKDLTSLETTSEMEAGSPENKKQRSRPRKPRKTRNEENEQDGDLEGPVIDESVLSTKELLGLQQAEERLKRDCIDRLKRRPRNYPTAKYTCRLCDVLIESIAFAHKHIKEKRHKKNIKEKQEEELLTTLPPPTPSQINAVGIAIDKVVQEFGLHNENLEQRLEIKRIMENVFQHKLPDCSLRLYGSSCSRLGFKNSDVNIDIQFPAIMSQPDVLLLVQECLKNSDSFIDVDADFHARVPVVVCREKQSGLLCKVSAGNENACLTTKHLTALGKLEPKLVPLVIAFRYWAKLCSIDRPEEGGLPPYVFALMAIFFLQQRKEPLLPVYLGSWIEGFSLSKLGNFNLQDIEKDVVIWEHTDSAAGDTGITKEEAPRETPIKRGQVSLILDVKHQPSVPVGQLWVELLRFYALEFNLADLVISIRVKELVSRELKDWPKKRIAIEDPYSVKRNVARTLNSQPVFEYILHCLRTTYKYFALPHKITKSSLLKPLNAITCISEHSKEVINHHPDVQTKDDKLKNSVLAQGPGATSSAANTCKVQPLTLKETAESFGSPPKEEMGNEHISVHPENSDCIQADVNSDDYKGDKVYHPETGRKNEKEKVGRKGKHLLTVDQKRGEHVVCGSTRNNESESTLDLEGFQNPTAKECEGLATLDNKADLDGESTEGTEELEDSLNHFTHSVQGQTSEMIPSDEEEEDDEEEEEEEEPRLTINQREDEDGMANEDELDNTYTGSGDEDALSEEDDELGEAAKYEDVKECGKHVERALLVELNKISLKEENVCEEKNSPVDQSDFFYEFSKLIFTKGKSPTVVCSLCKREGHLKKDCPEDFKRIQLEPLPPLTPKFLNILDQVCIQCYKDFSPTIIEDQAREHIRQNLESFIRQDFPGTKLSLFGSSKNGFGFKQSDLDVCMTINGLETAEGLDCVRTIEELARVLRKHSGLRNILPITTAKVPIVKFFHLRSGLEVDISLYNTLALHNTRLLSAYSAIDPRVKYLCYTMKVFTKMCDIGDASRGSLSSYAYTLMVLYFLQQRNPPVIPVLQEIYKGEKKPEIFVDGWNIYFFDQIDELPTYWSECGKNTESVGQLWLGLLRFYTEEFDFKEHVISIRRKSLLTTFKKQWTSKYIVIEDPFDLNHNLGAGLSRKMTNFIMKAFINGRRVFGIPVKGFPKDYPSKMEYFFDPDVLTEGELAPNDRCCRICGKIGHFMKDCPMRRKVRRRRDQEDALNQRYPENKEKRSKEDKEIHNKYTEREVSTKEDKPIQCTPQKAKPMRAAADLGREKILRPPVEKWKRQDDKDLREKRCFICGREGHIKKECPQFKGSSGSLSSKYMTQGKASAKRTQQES
Procedure, shortened: as §1

ASXL1 = ASXL1 (human, UniProt Q8IXJ9 1-1541, limits assumed)
Procedure, shortened: as §1

Measured: binding result

Chain of ARHGAP31 (Q2M1Z3 whole entry, the tested form may be a part): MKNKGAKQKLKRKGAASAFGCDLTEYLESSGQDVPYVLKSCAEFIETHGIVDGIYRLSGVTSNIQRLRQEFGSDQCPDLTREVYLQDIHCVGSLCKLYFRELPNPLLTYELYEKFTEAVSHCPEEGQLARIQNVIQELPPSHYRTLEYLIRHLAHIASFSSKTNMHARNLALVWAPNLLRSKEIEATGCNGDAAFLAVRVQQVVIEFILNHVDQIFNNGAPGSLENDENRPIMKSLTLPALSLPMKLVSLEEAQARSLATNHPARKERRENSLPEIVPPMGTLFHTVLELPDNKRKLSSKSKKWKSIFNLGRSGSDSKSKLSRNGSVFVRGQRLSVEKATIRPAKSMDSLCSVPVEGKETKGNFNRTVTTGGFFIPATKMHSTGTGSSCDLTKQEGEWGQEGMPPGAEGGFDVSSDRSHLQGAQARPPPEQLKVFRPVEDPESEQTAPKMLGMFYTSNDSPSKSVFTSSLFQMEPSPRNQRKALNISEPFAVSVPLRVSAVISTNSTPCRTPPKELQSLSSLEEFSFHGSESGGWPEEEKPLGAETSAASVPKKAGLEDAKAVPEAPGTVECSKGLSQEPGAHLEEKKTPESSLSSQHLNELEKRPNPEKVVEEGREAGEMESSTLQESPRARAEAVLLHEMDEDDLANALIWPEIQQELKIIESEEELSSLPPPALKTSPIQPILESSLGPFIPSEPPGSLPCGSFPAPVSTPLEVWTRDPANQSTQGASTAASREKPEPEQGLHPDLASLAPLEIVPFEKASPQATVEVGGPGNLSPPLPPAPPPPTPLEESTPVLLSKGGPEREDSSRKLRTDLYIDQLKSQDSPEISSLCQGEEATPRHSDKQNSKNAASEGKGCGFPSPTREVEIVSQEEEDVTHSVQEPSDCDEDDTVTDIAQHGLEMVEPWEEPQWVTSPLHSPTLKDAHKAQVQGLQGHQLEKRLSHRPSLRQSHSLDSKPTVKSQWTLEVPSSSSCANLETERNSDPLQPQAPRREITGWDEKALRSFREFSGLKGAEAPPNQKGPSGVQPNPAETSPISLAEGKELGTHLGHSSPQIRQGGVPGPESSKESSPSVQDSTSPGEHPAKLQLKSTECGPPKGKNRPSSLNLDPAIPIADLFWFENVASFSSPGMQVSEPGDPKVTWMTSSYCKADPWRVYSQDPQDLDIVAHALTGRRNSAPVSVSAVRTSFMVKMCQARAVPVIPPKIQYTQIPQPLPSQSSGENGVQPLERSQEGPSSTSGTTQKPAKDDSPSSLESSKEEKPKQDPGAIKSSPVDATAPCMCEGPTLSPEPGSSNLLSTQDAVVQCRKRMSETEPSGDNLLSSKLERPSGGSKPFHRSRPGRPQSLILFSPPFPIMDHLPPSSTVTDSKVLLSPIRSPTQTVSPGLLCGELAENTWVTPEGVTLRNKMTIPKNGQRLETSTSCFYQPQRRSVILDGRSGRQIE
Chain of VPS13A (Q96RL7 whole entry): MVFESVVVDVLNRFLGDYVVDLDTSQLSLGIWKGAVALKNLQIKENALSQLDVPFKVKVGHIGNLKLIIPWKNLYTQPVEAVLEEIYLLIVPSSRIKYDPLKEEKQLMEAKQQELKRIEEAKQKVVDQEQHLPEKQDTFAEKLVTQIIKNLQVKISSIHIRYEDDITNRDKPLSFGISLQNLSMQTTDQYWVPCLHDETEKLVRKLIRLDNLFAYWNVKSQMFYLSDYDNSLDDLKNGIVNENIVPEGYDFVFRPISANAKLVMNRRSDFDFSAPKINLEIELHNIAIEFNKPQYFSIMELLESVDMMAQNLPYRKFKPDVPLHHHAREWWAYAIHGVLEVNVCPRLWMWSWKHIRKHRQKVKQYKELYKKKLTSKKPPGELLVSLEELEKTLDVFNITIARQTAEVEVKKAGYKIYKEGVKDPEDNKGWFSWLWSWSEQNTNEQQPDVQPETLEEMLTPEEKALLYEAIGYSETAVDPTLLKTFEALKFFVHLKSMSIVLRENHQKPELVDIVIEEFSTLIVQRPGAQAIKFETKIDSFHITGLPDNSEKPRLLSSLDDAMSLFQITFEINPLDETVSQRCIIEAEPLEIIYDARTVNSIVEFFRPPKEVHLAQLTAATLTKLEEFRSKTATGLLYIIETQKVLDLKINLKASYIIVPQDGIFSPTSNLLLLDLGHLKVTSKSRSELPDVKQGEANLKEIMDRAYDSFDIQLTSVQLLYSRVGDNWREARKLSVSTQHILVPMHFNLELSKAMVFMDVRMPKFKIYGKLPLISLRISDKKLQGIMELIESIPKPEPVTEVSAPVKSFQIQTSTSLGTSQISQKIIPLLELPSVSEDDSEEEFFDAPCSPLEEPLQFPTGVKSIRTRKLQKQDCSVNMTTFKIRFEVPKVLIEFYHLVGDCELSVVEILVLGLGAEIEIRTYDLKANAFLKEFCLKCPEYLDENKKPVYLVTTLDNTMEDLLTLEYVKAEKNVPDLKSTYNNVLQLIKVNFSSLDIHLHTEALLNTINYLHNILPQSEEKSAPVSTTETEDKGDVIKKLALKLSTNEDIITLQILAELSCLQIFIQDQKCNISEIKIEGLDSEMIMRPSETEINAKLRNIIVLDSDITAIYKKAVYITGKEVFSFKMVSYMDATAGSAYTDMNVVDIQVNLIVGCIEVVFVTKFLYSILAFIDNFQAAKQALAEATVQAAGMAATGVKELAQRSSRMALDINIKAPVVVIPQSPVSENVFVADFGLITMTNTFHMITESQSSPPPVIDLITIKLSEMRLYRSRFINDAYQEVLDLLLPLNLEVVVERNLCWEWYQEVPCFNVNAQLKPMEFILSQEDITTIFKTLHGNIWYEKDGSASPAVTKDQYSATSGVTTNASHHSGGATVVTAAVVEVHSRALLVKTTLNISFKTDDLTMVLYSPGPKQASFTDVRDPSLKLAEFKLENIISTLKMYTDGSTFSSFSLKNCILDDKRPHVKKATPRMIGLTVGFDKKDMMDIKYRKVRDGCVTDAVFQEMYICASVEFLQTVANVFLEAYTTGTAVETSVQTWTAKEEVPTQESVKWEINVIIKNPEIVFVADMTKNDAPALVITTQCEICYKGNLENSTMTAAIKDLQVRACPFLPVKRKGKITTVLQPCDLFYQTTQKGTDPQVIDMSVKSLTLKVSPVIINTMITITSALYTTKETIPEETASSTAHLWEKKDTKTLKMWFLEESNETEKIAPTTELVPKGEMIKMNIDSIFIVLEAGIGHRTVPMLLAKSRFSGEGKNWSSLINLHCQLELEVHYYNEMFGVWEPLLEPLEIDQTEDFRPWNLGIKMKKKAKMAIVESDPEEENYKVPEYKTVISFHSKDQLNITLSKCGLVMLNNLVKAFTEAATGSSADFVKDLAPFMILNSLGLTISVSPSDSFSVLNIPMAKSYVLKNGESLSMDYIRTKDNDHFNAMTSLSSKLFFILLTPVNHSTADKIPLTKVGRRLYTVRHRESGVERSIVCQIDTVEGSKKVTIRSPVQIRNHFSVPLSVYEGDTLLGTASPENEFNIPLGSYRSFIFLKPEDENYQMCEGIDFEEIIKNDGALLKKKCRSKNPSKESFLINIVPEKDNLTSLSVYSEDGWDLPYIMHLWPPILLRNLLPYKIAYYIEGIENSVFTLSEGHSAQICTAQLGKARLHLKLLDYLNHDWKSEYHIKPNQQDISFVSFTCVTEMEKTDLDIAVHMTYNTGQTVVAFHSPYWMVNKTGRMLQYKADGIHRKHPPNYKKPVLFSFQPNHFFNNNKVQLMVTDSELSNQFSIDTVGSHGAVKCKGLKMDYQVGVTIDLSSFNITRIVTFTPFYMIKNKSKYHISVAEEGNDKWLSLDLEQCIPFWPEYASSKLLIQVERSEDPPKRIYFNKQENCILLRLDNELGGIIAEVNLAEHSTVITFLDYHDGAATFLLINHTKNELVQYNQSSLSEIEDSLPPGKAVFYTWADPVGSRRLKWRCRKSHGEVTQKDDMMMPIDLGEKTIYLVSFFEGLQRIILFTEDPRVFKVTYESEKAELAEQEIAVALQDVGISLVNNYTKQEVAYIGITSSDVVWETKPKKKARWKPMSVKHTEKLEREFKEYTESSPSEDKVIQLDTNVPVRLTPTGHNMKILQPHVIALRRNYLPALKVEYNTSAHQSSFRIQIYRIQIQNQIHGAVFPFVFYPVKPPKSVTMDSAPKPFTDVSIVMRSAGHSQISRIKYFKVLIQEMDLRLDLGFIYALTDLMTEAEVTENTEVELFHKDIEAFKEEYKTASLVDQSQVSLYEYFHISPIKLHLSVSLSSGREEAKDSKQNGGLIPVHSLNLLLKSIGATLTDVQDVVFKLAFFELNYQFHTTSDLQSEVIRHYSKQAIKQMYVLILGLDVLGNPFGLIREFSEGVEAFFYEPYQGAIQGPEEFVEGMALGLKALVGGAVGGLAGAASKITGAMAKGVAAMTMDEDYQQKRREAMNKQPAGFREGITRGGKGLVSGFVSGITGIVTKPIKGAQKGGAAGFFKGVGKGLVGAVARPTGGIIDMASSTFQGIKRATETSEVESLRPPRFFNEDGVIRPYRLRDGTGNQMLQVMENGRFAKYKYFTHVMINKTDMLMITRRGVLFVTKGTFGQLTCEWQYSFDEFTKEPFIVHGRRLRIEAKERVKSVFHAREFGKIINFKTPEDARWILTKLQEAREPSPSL

B1: LZTR1 R810W-FLAG (other, human, UniProt Q8N653 1-840, looked up)
chain: MAGPGSTGGQIGAAALAGGARSKVAPSVDFDHSCSDSVEYLTLNFGPFETVHRWRRLPPCDEFVGARRSKHTVVAYKDAIYVFGGDNGKTMLNDLLRFDVKDCSWCRAFTTGTPPAPRYHHSAVVYGSSMFVFGGYTGDIYSNSNLKNKNDLFEYKFATGQWTEWKIEGRLPVARSAHGATVYSDKLWIFAGYDGNARLNDMWTIGLQDRELTCWEEVAQSGEIPPSCCNFPVAVCRDKMFVFSGQSGAKITNNLFQFEFKDKTWTRIPTEHLLRGSPPPPQRRYGHTMVAFDRHLYVFGGAADNTLPNELHCYDVDFQTWEVVQPSSDSEVGGAEVPERACASEEVPTLTYEERVGFKKSRDVFGLDFGTTSAKQPTQPASELPSGRLFHAAAVISDAMYIFGGTVDNNIRSGEMYRFQFSCYPKCTLHEDYGRLWESRQFCDVEFVLGEKEECVQGHVAIVTARSRWLRRKITQARERLAQKLEQEAAPVPREAPGVAAGGARPPLLHVAIREAEARPFEVLMQFLYTDKIKYPRKGHVEDVLLIMDVYKLALSFQLCRLEQLCRQYIEASVDLQNVLVVCESAARLQLSQLKEHCLNFVVKESHFNQVIMMKEFERLSSPLIVEIVRRKQQPPPRTPLDQPVDIGTSLIQDMKAYLEGAGAEFCDITLLLDGHPRPAHKAILAARSSYFEAMFRSFMPEDGQVNISIGEMVPSRQAFESMLRYIYYGEVNMPPEDSLYLFAAPYYYGFYNNRLQAYCKQNLEMNVTVQNVLQILEAADKTQALDMKRHCLHIIVHQFTKVSKLPTLWSLSQQLLLDIIDSLASHISDKQCAELGADI
notes: Stably expressed in U87 cells by lentivirus; also called LZTR1-FLAG-R810W; LZTR1 RW; not shown: FLAG tag
binds: all assays above
